{
  "source": "the Human Domainome abundance scans (Beltran et al. 2025)",
  "parents": {"B1": {"name": "POU domain, class 2, transcription factor 2, residues 200 to 269; numbered along this chain, P09086 (parent)", "chain": "LEELEQFARTFKQRRIKLGFTQGDVGLAMGKLYGNDFSQTTISRFEALNLSFKNMCKLKPLLEKWLNDAE"}},
  "note": "± gives the uncertainty stated by the source.",
  "data": [
    {"variants_of": "B1", "experiment": "abundance fitness (aPCA) (normalised: wild type 0, dead -1); higher = more abundant; growth selection in yeast, the domain comes from the species named", "details": "Homo sapiens", "values": [
      {"variant": "LEELEQFARTFKQRRIKLGFTQGDVGLAMGKLYGNDFSFTTISRFEALNLSFKNMCKLKPLLEKWLNDAE", "note": "[Q39F]", "abundance fitness": "-0.022 ± 0.08"},
      {"variant": "LEELEQFARTFKQRRIKLGFTQGDVGLAMGKLYGNDFSITTISRFEALNLSFKNMCKLKPLLEKWLNDAE", "note": "[Q39I]", "abundance fitness": "-0.017 ± 0.063"},
      {"variant": "LEELEQFARTFKQRRIKLGFTQGDVGLAMGKLYGNDFSCTTISRFEALNLSFKNMCKLKPLLEKWLNDAE", "note": "[Q39C]", "abundance fitness": "-0.077 ± 0.061"},
      {"variant": "LEELEQFARTFKQRRIKLGFTQGDVGLAMGKLYGNDFSHTTISRFEALNLSFKNMCKLKPLLEKWLNDAE", "note": "[Q39H]", "abundance fitness": "-0.11 ± 0.088"},
      {"variant": "LEELEQFARTFKQRRIKLGFTQGDVGLAMGKLYGNDFSMTTISRFEALNLSFKNMCKLKPLLEKWLNDAE", "note": "[Q39M]", "abundance fitness": "-0.024 ± 0.064"},
      {"variant": "LEELEQFARTFKQRRIKLGFTQGDVGLAMGKLYGNDFSNTTISRFEALNLSFKNMCKLKPLLEKWLNDAE", "note": "[Q39N]", "abundance fitness": "-0.306 ± 0.097"},
      {"variant": "LEELEQFARTFKQRRIKLGFTQGDVGLAMGKLYGNDFKQTTISRFEALNLSFKNMCKLKPLLEKWLNDAE", "note": "[S38K]", "abundance fitness": "-0.055 ± 0.061"},
      {"variant": "LEELEQFARTFKQRRIKLGFTQGDVGLAMGKLYGNDFAQTTISRFEALNLSFKNMCKLKPLLEKWLNDAE", "note": "[S38A]", "abundance fitness": "-0.014 ± 0.053"},
      {"variant": "LEELEQFARTFKQRRIKLGFTQGDVGLAMGKLYGNDFPQTTISRFEALNLSFKNMCKLKPLLEKWLNDAE", "note": "[S38P]", "abundance fitness": "-0.065 ± 0.044"},
      {"variant": "LEELEQFARTFKQRRIKLGFTQGDVGLAMGKLYGNDFVQTTISRFEALNLSFKNMCKLKPLLEKWLNDAE", "note": "[S38V]", "abundance fitness": "-0.081 ± 0.041"},
      {"variant": "LEELEQFARTFKQRRIKLGFTQGDVGLAMGKLYGNDFNQTTISRFEALNLSFKNMCKLKPLLEKWLNDAE", "note": "[S38N]", "abundance fitness": "0.044 ± 0.073"},
      {"variant": "LEELEQFARTFKQRRIKLGFTQGDVGLAMGKLYGNDFYQTTISRFEALNLSFKNMCKLKPLLEKWLNDAE", "note": "[S38Y]", "abundance fitness": "-0.234 ± 0.12"},
      {"variant": "LEELEQFARTFKQRRIKLGFTQGDVGLAMGKLYGNDFEQTTISRFEALNLSFKNMCKLKPLLEKWLNDAE", "note": "[S38E]", "abundance fitness": "-0.015 ± 0.053"},
      {"variant": "LEELEQFARTFKQRRIKLGFTQGDVGLAMGKLYGNDFWQTTISRFEALNLSFKNMCKLKPLLEKWLNDAE", "note": "[S38W]", "abundance fitness": "-0.157 ± 0.04"},
      {"variant": "LEELEQFARTFKQRRIKLGFTQGDVGLAMGKLYGNDFRQTTISRFEALNLSFKNMCKLKPLLEKWLNDAE", "note": "[S38R]", "abundance fitness": "-0.037 ± 0.023"},
      {"variant": "LEELEQFARTFKQRRIKLGFTQGDVGLAMGKLYGNDFDQTTISRFEALNLSFKNMCKLKPLLEKWLNDAE", "note": "[S38D]", "abundance fitness": "0.241 ± 0.28"},
      {"variant": "LEELEQFARTFKQRRIKLGFTQGDVGLAMGKLYGNDFIQTTISRFEALNLSFKNMCKLKPLLEKWLNDAE", "note": "[S38I]", "abundance fitness": "-0.107 ± 0.19"},
      {"variant": "LEELEQFARTFKQRRIKLGFTQGDVGLAMGKLYGNDFMQTTISRFEALNLSFKNMCKLKPLLEKWLNDAE", "note": "[S38M]", "abundance fitness": "-0.085 ± 0.051"},
      {"variant": "LEELEQFARTFKQRRIKLGFTQGDVGLAMGKLYGNDFCQTTISRFEALNLSFKNMCKLKPLLEKWLNDAE", "note": "[S38C]", "abundance fitness": "-0.023 ± 0.059"},
      {"variant": "LEELEQFARTFKQRRIKLGFTQGDVGLAMGKLYGNDFGQTTISRFEALNLSFKNMCKLKPLLEKWLNDAE", "note": "[S38G]", "abundance fitness": "0.025 ± 0.034"},
      {"variant": "LEELEQFARTFKQRRIKLGFTQGDVGLAMGKLYGNDFTQTTISRFEALNLSFKNMCKLKPLLEKWLNDAE", "note": "[S38T]", "abundance fitness": "-0.004 ± 0.05"},
      {"variant": "LEELEQFARTFKQRRIKLGFTQGDVGLAMGKLYGNDFQQTTISRFEALNLSFKNMCKLKPLLEKWLNDAE", "note": "[S38Q]", "abundance fitness": "-0.054 ± 0.068"},
      {"variant": "LEELEQFARTFKQRRIKLGFTQGDVGLAMGKLYGNDFSQKTISRFEALNLSFKNMCKLKPLLEKWLNDAE", "note": "[T40K]", "abundance fitness": "0.232 ± 0.2"},
      {"variant": "LEELEQFARTFKQRRIKLGFTQGDVGLAMGKLYGNDFSQMTISRFEALNLSFKNMCKLKPLLEKWLNDAE", "note": "[T40M]", "abundance fitness": "-0.058 ± 0.085"},
      {"variant": "LEELEQFARTFKQRRIKLGFTQGDVGLAMGKLYGNDFSQFTISRFEALNLSFKNMCKLKPLLEKWLNDAE", "note": "[T40F]", "abundance fitness": "-0.041 ± 0.096"},
      {"variant": "LEELEQFARTFKQRRIKLGFTQGDVGLAMGKLYGNDFSQRTISRFEALNLSFKNMCKLKPLLEKWLNDAE", "note": "[T40R]", "abundance fitness": "-0.021 ± 0.032"},
      {"variant": "LEELEQFARTFKQRRIKLGFTQGDVGLAMGKLYGNDFSQGTISRFEALNLSFKNMCKLKPLLEKWLNDAE", "note": "[T40G]", "abundance fitness": "-0.036 ± 0.042"},
      {"variant": "LEELEQFARTFKQRRIKLGFTQGDVGLAMGKLYGNDFSQQTISRFEALNLSFKNMCKLKPLLEKWLNDAE", "note": "[T40Q]", "abundance fitness": "0.009 ± 0.064"},
      {"variant": "LEELEQFARTFKQRRIKLGFTQGDVGLAMGKLYGNDFSQNTISRFEALNLSFKNMCKLKPLLEKWLNDAE", "note": "[T40N]", "abundance fitness": "-0.107 ± 0.083"},
      {"variant": "LEELEQFARTFKQRRIKLGFTQGDVGLAMGKLYGNDFSQPTISRFEALNLSFKNMCKLKPLLEKWLNDAE", "note": "[T40P]", "abundance fitness": "-0.072 ± 0.087"},
      {"variant": "LEELEQFARTFKQRRIKLGFTQGDVGLAMGKLYGNDFSQYTISRFEALNLSFKNMCKLKPLLEKWLNDAE", "note": "[T40Y]", "abundance fitness": "0.031 ± 0.12"},
      {"variant": "LEELEQFARTFKQRRIKLGFTQGDVGLAMGKLYGNDFSQSTISRFEALNLSFKNMCKLKPLLEKWLNDAE", "note": "[T40S]", "abundance fitness": "0.032 ± 0.049"},
      {"variant": "LEELEQFARTFKQRRIKLGFTQGDVGLAMGKLYGNDFSQITISRFEALNLSFKNMCKLKPLLEKWLNDAE", "note": "[T40I]", "abundance fitness": "-0.285 ± 0.11"},
      {"variant": "LEELEQFARTFKQRRIKLGFTQGDVGLAMGKLYGNDFSQCTISRFEALNLSFKNMCKLKPLLEKWLNDAE", "note": "[T40C]", "abundance fitness": "-0.038 ± 0.063"},
      {"variant": "LEELEQFARTFKQRRIKLGFTQGDVGLAMGKLYGNDFSQVTISRFEALNLSFKNMCKLKPLLEKWLNDAE", "note": "[T40V]", "abundance fitness": "0.068 ± 0.046"},
      {"variant": "LEELEQFARTFKQRRIKLGFTQGDVGLAMGKLYGNDFSQHTISRFEALNLSFKNMCKLKPLLEKWLNDAE", "note": "[T40H]", "abundance fitness": "-0.161 ± 0.13"},
      {"variant": "LEELEQFARTFKQRRIKLGFTQGDVGLAMGKLYGNDFSQDTISRFEALNLSFKNMCKLKPLLEKWLNDAE", "note": "[T40D]", "abundance fitness": "0.02 ± 0.089"},
      {"variant": "LEELEQFARTFKQRRIKLGFTQGDVGLAMGKLYGNDFSQLTISRFEALNLSFKNMCKLKPLLEKWLNDAE", "note": "[T40L]", "abundance fitness": "-0.078 ± 0.06"},
      {"variant": "LEELEQFARTFKQRRIKLGFTQGDVGLAMGKLYGNDFSQETISRFEALNLSFKNMCKLKPLLEKWLNDAE", "note": "[T40E]", "abundance fitness": "-0.002 ± 0.063"}
    ]}
  ]
}
